The target in assay [1] is T1, Taq DNA polymerase (Thermus aquaticus, UniProt P19821 1-832).
T1 construct: also called Taq enzyme; Taq DNA enzyme
Description: AMC sensor, antibody immobilised.

The target in assay [2] is T1, Taq DNA polymerase. Description: AMC sensor, antibody immobilised. This is another data set of the same source.
The target of assay [3] is T1, Taq DNA polymerase. Nature of the assay: AMC sensor, antibody immobilised. The source holds these as a separate data set.
The target of assay [4] is T1, Taq DNA polymerase. Nature of the assay: ELISA on coated Taq, antibody 4.12 ng/ml. On the procedure: (§1) The antibody activity was detected after mutation. Taq DNA enzyme was diluted with coating solution to the specified concentration, 100 μL per well overnight at 4° C.; which was washed twice with washing solution and patted dry on the next day; with addition of blocking solution (20% BSA+80% PBS), 120 μL per well at 37° C. for 1 h and patted dry; added the diluted Taq monoclonal antibodies, 100 μL/well at 37° C. for 30 min (partial supernatant for 1 h); washed 5 times with washing solution and patted dry; added goat anti-mouse IgG-HRP at 100 μL per well at 37° C. for 30 min; washed 5 times with washing solution and patted dry; added color developing solution A (50 μL/well), added color developing solution B (50 μL/well) for 10 min; added stop solution, 50 μL/well; followed by reading the OD value at 450 nm (reference 630 nm) on the microplate reader.

Assay [5] addresses T1, Taq DNA polymerase. Nature of the assay: ELISA on coated Taq, antibody 37.04 ng/ml. On the procedure: as §1
The target in assay [6] is T1, Taq DNA polymerase. Nature of the assay: ELISA on coated Taq, antibody 12.35 ng/ml. On the procedure:
as §1

In assay [7] the target is T1, Taq DNA polymerase. Nature of the assay: ELISA on coated Taq, antibody 1.37 ng/ml. On the procedure: as §1

Numbering of substitutions follows the chain as printed. Read-outs that look alike come from different tables or passages of the source.

T1 sequence (P19821 whole entry): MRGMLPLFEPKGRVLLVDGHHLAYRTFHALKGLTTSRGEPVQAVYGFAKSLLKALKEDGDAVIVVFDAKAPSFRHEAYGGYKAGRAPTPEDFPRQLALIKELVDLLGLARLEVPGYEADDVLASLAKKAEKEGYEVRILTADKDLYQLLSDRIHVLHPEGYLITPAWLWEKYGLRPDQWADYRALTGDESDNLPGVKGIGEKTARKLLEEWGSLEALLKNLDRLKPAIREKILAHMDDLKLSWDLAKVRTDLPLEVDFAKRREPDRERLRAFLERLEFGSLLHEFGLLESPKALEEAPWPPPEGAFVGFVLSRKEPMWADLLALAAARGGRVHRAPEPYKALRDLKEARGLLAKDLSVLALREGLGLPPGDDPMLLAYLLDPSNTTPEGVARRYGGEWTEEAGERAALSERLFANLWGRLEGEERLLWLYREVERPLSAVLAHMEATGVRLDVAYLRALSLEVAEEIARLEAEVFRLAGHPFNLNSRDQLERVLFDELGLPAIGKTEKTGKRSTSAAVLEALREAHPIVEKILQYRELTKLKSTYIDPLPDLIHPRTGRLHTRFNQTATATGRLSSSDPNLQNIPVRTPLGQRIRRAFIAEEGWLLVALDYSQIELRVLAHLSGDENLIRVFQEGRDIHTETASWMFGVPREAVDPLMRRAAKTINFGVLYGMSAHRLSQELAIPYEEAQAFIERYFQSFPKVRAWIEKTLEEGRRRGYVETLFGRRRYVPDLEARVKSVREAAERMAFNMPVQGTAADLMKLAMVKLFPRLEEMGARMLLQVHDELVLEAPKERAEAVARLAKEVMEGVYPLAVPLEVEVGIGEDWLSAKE

B1: WT 1-4 (antibody, V domains shown)
VH: QVQLQQPGAELVKPGASVRLSCQTSVNTFSTYYLYWVKQRPGEGLEWIGGINPTSGGPVFDEKFKSKATLTVDTSSSTAYMQLSSLTSVDSAVYYCTRSVVRRGYYPDYWGQGTALTVSS
VL: DIQMTQTTSSLSASLGDRVTISCRGSQDIQNYINWYQQKPDGTIKLLIYFTSRLHSGVPSRFSGSGSGTDYSLTIANLEQEDIATYFCQQDDTVPITWGAGTKVELKR
notes: WT background; CDRs built
As for B1, in assay [1], the Kd was determined as 4.1 nM, the koff came to 0.000362 s⁻¹ and the kon stood at 88400 M⁻¹ s⁻¹.

B2: Mutation 1-3 (antibody, V domains shown)
VH: B1 VH with N27E, S30T, L34I, I51V, D61N, V101L, P107F
VL: B1 VL with G25A, Q30N, I33L, F50Y, V58I, I96V, W98F
notes: Mutation 1 background; CDRs built
Regarding B2, in assay [2], binding was put at a Kd of 0.367 nM, the off-rate constant (koff) was 1.54e-05 s⁻¹ and the kon is 42000 M⁻¹ s⁻¹.

B3: Mutation 1-11 (antibody, V domains shown)
VH: B1 VH with S30T, L34I, I51L, D61N, V100I, V101I, P107F
VL: B1 VL with G25A, Q30N, F50Y, H55Q, V58L, V94I, I96L, W98F
notes: as for B2
In assay [2], B3 returned a Kd of 0.613 nM, a dissociation rate constant (koff) of 3.06e-05 s⁻¹ and a kon of 50000 M⁻¹ s⁻¹.

B4: Mutation 1-59 (antibody, V domains shown)
VH: QVQLQQPGAELVKPGASVRLSCQTSVNTFSTYYIYWVKQRPGEGLEWIGGLNPTSNPVFNEKFKSKATLTVDTSSSTAYMQLSSLTSVDSAVYYCTRSVIRRGYYFDYWGQGTALTVSS
VL: B1 VL with G25A, Q30N, F50Y, H55Q, V58L, I96L, W98F
notes: as for B2
In assay [2], B4 displayed a Kd of 0.0507 nM, an off-rate (koff) of 3.06e-06 s⁻¹ and an on-rate constant (kon) of 60400 M⁻¹ s⁻¹.

B5: Mutation 1-15 (antibody, V domains shown)
VH: B1 VH with N27E, S30T, L34I, I51V, D61N, V100L, V101L, P107F
VL: B1 VL with G25A, Q30N, I33L, F50Y, H55N, V58I, V94L, I96V, W98F
notes: as for B2
B5: in assay [2], binding was characterised by a dissociation constant (Kd) of 0.12 nM, the koff was 5.72e-06 s⁻¹ and the kon is 47600 M⁻¹ s⁻¹.

B6: Mutation 1-9 (antibody, V domains shown)
VH: B1 VH with N27E, S30T, L34I, I51V, D61N, V100I, V101L, P107F
VL: B1 VL with G25A, Q30N, I33L, F50Y, H55Q, V58I, V94I, I96V, W98F
notes: as for B2
B6: in assay [2], the dissociation constant (Kd) was determined as 0.926 nM, the off-rate constant (koff) is 7.28e-05 s⁻¹ and the kon was determined as 78600 M⁻¹ s⁻¹.

B7: Mutation 1-13 (antibody, V domains shown)
VH: B4 VH with N27D, S30T, L51I, I100V
VL: B1 VL with G25A, Q30N, I33V, F50Y, W98F
notes: as for B2
Take B7: in assay [2], the dissociation constant (Kd) is 0.407 nM, the off-rate (koff) is 2.52e-05 s⁻¹ and the kon came to 61700 M⁻¹ s⁻¹.

B8: Mutation 1-8 (antibody, V domains shown)
VH: B4 VH with N27E, V99L
VL: B1 VL with G25A, I33L, F50Y, H55N, V58L, V94L, I96L, W98F
notes: as for B2
With B8, in assay [2], the dissociation constant Kd turned out to be 0.0343 nM, the dissociation rate constant (koff) amounted to 1.64e-06 s⁻¹ and the kon turned out to be 47600 M⁻¹ s⁻¹.

B9: Mutation 1-7 (antibody, V domains shown)
VH: B4 VH with N27D, S30T, L51I, V99L, I100V
VL: B1 VL with G25A, Q30N, I33V, F50Y, H55N, V94L, W98F
notes: as for B2
In assay [2], B9 gave an equilibrium dissociation constant (Kd) of 0.599 nM, a dissociation rate constant (koff) of 2.45e-05 s⁻¹ and an on-rate constant (kon) of 41000 M⁻¹ s⁻¹.

B10: Mutation 1-14 (antibody, V domains shown)
VH: B4 VH with N27E
VL: B1 VL with G25A, I33L, F50Y, V58L, I96L, W98F
notes: as for B2
As for B10, in assay [2], the dissociation constant (Kd) turned out to be 0.229 nM, the koff turned out to be 1.92e-05 s⁻¹ and the on-rate constant (kon) is 84100 M⁻¹ s⁻¹.

B11: WT 1-9 (antibody, V domains shown)
VH: B1 VH with N27E, S30T, I51V, V100I, V101L
VL: B1 VL with Q30N, I33L, H55Q, V58I, V94I, I96V
notes: WT background; CDRs built
For the molecule B11, in assay [1], the Kd stood at 8.57 nM, the koff was 0.000433 s⁻¹ and the on-rate (kon) was found to be 50500 M⁻¹ s⁻¹.

B12: WT 1-5 (antibody, V domains shown)
VH: B1 VH with S30T, I51L, V101I
VL: B1 VL with Q30N, V58L, I96L
notes: WT background; CDRs built
In assay [1], B12 yielded a Kd of 5.13 nM, a koff of 0.000314 s⁻¹ and an association rate constant (kon) of 61200 M⁻¹ s⁻¹.

B13: WT 1-3 (antibody, V domains shown)
VH: B1 VH with N27E, S30T, I51V, V101L
VL: B1 VL with Q30N, I33L, V58I, I96V
notes: WT background; CDRs built
As for B13, in assay [1], binding was put at a Kd of 2.3 nM, the koff stood at 0.00011 s⁻¹ and the association rate constant (kon) was 48000 M⁻¹ s⁻¹.

B14: Mutation 3 (antibody)
heavy: QVQLQQPGAELVKPGASVRLSCQTSVDTFSTYYAYWVKQRPGEGLEWIGGVNPTSNPVFDEKFKSKATLTVDTSSSTAYMQLSSLTSVDSAVYYCTRSILRRGYYQDYWGQGTALTVSSAKTTPPSVYPLAPGSAAQTNSMVTLGCLVKGYFPEPVTVTWNSGSLSSGVHTFPAVLQSDLYTLSSSVTVPSSTWPSETVTCNVAHPASSTKVDKKIVPRDCGCKPCICTVPEVSSVFIFPPKPKDVLTITLTPKVTCVVVDISKDDPEVQFSWFVDDVEVHTAQTQPREEQFNSTFRSVSELPIMHQDWLNGKEFKCRVNSAAFPAPIEKTISKTKGRPKAPQVYTIPPPKEQMAKDKVSLTCMITDFFPEDITVEWQWNGQPAENYKNTQPIMDTDGSYFVYSKLNVQKSNWEAGNTFTCSVLHEGLHNHHTEKSLSHSPGK
light: DIQMTQTTSSLSASLGDRVTISCRGSQDIQNYVNWYQQKPDGTIKLLIYYTSRLQSGIPSRFSGSGSGTDYSLTIANLEQEDIATYFCQQDDTIPVTYGAGTKVELKRADAAPTVSIFPPSSEQLTSGGASVVCFLNNFYPKDINVKWKIDGSERQNGVLNSWTDQDSKDSTYSMSSTLTLTKDEYERHNSYTCEATHKTSTSPIVKSFNRNEC
Take B14: in assay [3], the dissociation constant Kd was determined as 20.7 nM. The koff in assay [3] was 0.00135 s⁻¹. Moreover, the kon in assay [3] is 65500 M⁻¹ s⁻¹. Besides, the “OD 450 nm” value was 0.45 OD in assay [4], 1.78 OD in assay [5], 0.874 OD in assay [6] and 0.067 OD in assay [7].

B15: Mutation 5 (antibody)
heavy: B14 heavy with A34S, D60Y, Q106K
light: B14 light with G25I, Y50P, Y98R
For the molecule B15, the “OD 450 nm” value turned out to be 0.362 OD in assay [4], 1.41 OD in assay [5], 0.701 OD in assay [6] and 0.054 OD in assay [7].

B16: WT 1-6 (antibody, V domains shown)
VH: B4 VH with N27D, I34L, L51V, N60D, V99L, I100L, F106P
VL: B1 VL with I33V, H55N, V58I, V94L, I96V
notes: WT background; CDRs built
Turning to B16, in assay [1], the affinity, expressed as Kd, was 6.65 nM; the koff came to 0.000506 s⁻¹; the kon worked out at 76100 M⁻¹ s⁻¹.

B17: Mutation 4 (antibody)
heavy: B14 heavy with A34W, D60K, Q106E
light: B14 light with G25L, Y50S, Y98E
As for B17, the “OD 450 nm” value in assay [4] amounted to 0.354 OD; in assay [5], 1.38 OD; in assay [6], 0.679 OD; in assay [7], 0.057 OD.

B18: WT 1-2 (antibody, V domains shown)
VH: B4 VH with N27E, I34L, N60D, V99I, F106P
VL: B1 VL with I33L, H55Q, V58L, V94I, I96L
notes: WT background; CDRs built
In assay [1], B18 returned a dissociation constant (Kd) of 3.41 nM, a dissociation rate constant (koff) of 0.000166 s⁻¹ and a kon of 48500 M⁻¹ s⁻¹.

B19: WT 1-8 (antibody, V domains shown)
VH: B4 VH with N27E, I34L, N60D, V99L, F106P
VL: B1 VL with I33L, H55N, V58L, V94L, I96L
notes: WT background; CDRs built
For B19, in assay [1], binding was put at a Kd of 3.02 nM, the koff came out at 9.85e-05 s⁻¹ and the kon came to 32600 M⁻¹ s⁻¹.

B20: WT 1-1 (antibody, V domains shown)
VH: B4 VH with N27D, S30T, I34L, L51I, N60D, V99I, I100V, F106P
VL: B1 VL with Q30N, I33V, H55Q, V94I
notes: WT background; CDRs built
In assay [1], B20 had a Kd of 4.65 nM, a dissociation rate constant (koff) of 0.000273 s⁻¹ and a kon of 58800 M⁻¹ s⁻¹.

B21: WT 1-7 (antibody, V domains shown)
VH: B4 VH with N27D, S30T, I34L, L51I, N60D, V99L, I100V, F106P
VL: B1 VL with Q30N, I33V, H55N, V94L
notes: WT background; CDRs built
Regarding B21, in assay [1], the Kd turned out to be 3.42 nM, the dissociation rate constant (koff) is 0.000296 s⁻¹ and the kon came out at 86700 M⁻¹ s⁻¹.

Values taken from patent US20210403601A1 (FAPON BIOTECH, published 2021).
